The target in assay [1] is T1, cynomolgus sclerostin (cynomolgus monkey).
T1 chain: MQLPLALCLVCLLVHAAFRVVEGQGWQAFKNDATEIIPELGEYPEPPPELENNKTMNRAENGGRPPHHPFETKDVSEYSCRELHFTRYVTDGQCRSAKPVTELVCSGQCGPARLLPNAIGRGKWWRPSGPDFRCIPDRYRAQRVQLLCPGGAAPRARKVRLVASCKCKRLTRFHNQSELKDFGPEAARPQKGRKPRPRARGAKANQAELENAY
The assay is described as follows: SPR, pH 7.4, 37C. Background: SPR reads the build-up and loss of mass on a sensor chip optically.

For assay [2], the target named is T2, mouse sclerostin (mouse).
T2 chain: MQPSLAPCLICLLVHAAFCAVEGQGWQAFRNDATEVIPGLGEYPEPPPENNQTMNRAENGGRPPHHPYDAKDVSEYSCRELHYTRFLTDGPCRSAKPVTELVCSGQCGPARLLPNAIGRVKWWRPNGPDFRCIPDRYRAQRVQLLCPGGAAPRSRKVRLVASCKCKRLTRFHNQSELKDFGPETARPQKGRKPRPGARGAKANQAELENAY
The assay is described as follows: SPR, pH 5.8, 37C.

Assay [3] has as its target T3, rat sclerostin (rat).
T3 chain: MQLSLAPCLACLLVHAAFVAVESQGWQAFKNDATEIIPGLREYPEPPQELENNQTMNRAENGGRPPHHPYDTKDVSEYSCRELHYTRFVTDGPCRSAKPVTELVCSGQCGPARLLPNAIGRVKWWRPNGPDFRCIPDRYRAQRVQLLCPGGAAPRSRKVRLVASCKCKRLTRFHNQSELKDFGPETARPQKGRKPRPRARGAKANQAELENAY
Kind of assay: SPR, pH 5.8, 37C.

Assay [4] addresses T4, human sclerostin (human).
T4 chain: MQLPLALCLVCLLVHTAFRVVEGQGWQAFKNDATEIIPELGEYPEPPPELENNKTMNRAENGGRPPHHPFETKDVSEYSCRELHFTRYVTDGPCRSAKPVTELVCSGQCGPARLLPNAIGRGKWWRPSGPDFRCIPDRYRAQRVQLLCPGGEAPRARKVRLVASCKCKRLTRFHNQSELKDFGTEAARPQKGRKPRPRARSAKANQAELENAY
The assay is described as follows: SPR, pH 7.4, 37C.

The target in assay [5] is T2, mouse sclerostin. The assay is described as follows: SPR, pH 7.4, 37C.
Assay [6] has as its target T3, rat sclerostin. Kind of assay: SPR, pH 7.4, 37C.
The target of assay [7] is T1, cynomolgus sclerostin. Kind of assay: SPR, pH 7.4 to 5.8, 37C.
Assay [8] concerns the target T4, human sclerostin. The assay is described as follows: SPR, pH 7.4 to 5.8, 37C.
The target in assay [9] is T1, cynomolgus sclerostin. The assay is described as follows: SPR, pH 5.8, 37C.
The target of assay [10] is T4, human sclerostin. Kind of assay: SPR, pH 5.8, 37C.
Assay [11] addresses T3, rat sclerostin. The assay is described as follows: SPR, pH 7.4 to 5.8, 37C.

B1: mabA_pH1 (antibody, V domains shown)
VH: EVQLVQSGAEVKKPGASVKVSCKASGYTFTDYNMHWVRQAPGQGLEWMGEINPNSGHAGYNQKFKGRVTMTTDTSTSTAYMELRSLRSDDTAVYYCARLHYDDIYDDWYFDVWGQGTTVTVSS
VL: DIQMTQSPSSLSASVGDRVTITCRASHDISNYLNWYQQKPGKAPKLLIYYTSRLLSGVPSRFSGSGSGTDFTLTISSLQPEDFATYYCQQGDTLPYTFGGGTKVEIK
For orientation: Kd means the free concentration of one partner at which half of the binding sites on the other are occupied at equilibrium, for simple one-to-one binding. Read a high Kd as a looser complex. One may read the koff as the first-order rate constant of dissociation. The low end stands for a long-lived complex, the high end for a short-lived complex. As for B1, the Kd with cynomolgus sclerostin [1] came out at 202 pM; with mouse sclerostin [2], 5210 pM; with rat sclerostin [3], 4200 pM; in the assay with human sclerostin [4] it was 213 pM; with mouse sclerostin [5], 63.2 pM; with rat sclerostin [6], 25.2 pM. In addition, the values for the koff with cynomolgus sclerostin [7] and in the assay with human sclerostin [8] were 0.0156 s⁻¹ and 0.0131 s⁻¹, respectively.

B2: mabA_pH2 (antibody, V domains shown)
VH: EVQLVQSGAEVKKPGASVKVSCKASGYTFTDYNMHWVRQAPGQGLEWMGEINPNSGHAGYNQKFKGRVTMTTDTSTSTAYMELRSLRSDDTAVYYCARLHYDHIYDDWYFDVWGQGTTVTVSS
VL: DIQMTQSPSSLSASVGDRVTITCRASHDISNYLNWYQQKPGKAPKLLIYYTSRLLSGVPSRFSGSGSGTDFTLTISSLQPEDFATYYCQQGDTLPYTFGGGTKVEIK
With B2, the Kd in the assay with cynomolgus sclerostin [1] is 252 pM; with mouse sclerostin [2], 5430 pM; with rat sclerostin [3], 4450 pM; with human sclerostin [4], 258 pM; with mouse sclerostin [5] it was 80.7 pM; with rat sclerostin [6], 31.2 pM. Moreover, the koff with cynomolgus sclerostin [7] was 0.0165 s⁻¹; with human sclerostin [8], 0.0139 s⁻¹.

B3: mabA_NpH2 (antibody, V domains shown)
VH: EVQLVQSGAEVKKPGASVKVSCKASGYTFTDYNMHWVRQAPGQGLEWMGEINPNSGGAGYNQKFKGRVTMTTDTSTSTAYMELRSLRSDDTAVYYCARLGYDDIYDDWYFDVWGQGTTVTVSS
VL: DIQMTQSPSSLSASVGDRVTITCRASQDISNYLNWYQQKPGKAPKLLIYHTSRLLSGVPSRFSGSGSGTDFTLTISSLQPEDFATYYCQQGDTLPYTFGGGTKVEIK
B3: the Kd came out at 627 pM in the assay with cynomolgus sclerostin [9]; 690 pM with human sclerostin [10]; 280 pM in the assay with cynomolgus sclerostin [1]; 0.0168 pM with mouse sclerostin [2]; 0.0736 pM with rat sclerostin [3]; 323 pM with human sclerostin [4]. Also, the Kd with mouse sclerostin [5] was determined as 5.57 pM; in the assay with rat sclerostin [6], 6.61 pM.

B4: mabA_pH3 (antibody, V domains shown)
VH: EVQLVQSGAEVKKPGASVKVSCKASGYTFTDYNMHWVRQAPGQGLEWMGEINPHSGHAGYNQKFKGRVTMTTDTSTSTAYMELRSLRSDDTAVYYCARLHYDDIHDDWYFDVWGQGTTVTVSS
VL: DIQMTQSPSSLSASVGDRVTITCRASHDISNYLNWYQQKPGKAPKLLIYYTSRLLSGVPSRFSGSGSGTDFTLTISSLQPEDFATYYCQQGDTLPYTFGGGTKVEIK
Turning to B4, the Kd with mouse sclerostin [2] amounted to 1050 pM; with mouse sclerostin [5], 287 pM; with rat sclerostin [6] it was 184 pM. The molecule also came in with a koff with rat sclerostin [11] of 0.0182 s⁻¹.

B5: mabA_NpH1 (antibody, V domains shown)
VH: EVQLVQSGAEVKKPGASVKVSCKASGYTFTDYNMHWVRQAPGQGLEWMGEINPNSGGAGYNQKFKGRVTMTTDTSTSTAYMELRSLRSDDTAVYYCARLGYDDIYDDWYFHVWGQGTTVTVSS
VL: DIQMTQSPSSLSASVGDRVTITCRASQDISNYLNWYQQKPGKAPKLLIYHTSRLLSGVPSRFSGSGSGTDFTLTISSLQPEDFATYYCQQGDTLPYTFGGGTKVEIK
Regarding B5, the Kd with cynomolgus sclerostin [9] was determined as 459 pM; with human sclerostin [10] it was 435 pM; with cynomolgus sclerostin [1], 189 pM; in the assay with mouse sclerostin [2] it was 503 pM; with rat sclerostin [3] it was 292 pM; with human sclerostin [4], 193 pM. The Kd with mouse sclerostin [5] came to 204 pM; in the assay with rat sclerostin [6] it was 82.6 pM.

For the origin of these results see patent publication US11608374 (dated 2023).
